This note sets out measurements from PMC6981274, “Structure and mechanism of a Type III CRISPR defence DNA nuclease activated by cyclic oligoadenylate” (Nature Communications, 2020).

Data set [1] concerns the target T1, Can1 wild type (UniProt Q53W14 =ME+3-636+=LE, internal_change).
T1 sequence: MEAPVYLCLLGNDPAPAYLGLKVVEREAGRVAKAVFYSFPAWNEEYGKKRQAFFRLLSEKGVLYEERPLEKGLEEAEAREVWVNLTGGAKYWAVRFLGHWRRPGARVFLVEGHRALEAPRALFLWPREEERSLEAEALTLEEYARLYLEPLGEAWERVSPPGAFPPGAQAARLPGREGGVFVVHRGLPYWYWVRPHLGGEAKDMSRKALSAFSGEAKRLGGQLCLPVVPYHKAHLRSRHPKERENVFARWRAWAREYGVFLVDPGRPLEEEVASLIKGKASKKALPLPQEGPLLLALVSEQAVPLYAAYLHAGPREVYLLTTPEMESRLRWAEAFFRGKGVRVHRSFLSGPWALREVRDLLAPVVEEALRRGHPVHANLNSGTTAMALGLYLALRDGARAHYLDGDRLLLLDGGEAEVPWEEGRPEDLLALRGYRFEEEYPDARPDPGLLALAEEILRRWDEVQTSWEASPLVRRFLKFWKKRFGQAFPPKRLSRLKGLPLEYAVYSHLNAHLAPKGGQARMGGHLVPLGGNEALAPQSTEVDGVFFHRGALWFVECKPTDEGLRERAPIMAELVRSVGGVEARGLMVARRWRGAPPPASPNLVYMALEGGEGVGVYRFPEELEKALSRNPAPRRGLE
Kind of data set: SAXS; EMSA: 100 nM 32P-cA4, 20 mM MES pH 6.5, 100 mM NaCl, 1 mM EDTA, 5 mM MnCl2, 2 uM BSA, 10 min at room temperature; 15% native acrylamide, 1x TBE. The settings on record: protein: recombinant; tags: N-terminal His tag removed by TEV; C-terminal Leu-Glu added by cloning; cyclic single strand of 4 nt. (In EMSA bound probe runs differently from free probe, usually more slowly.)

For data set [2], the target named is T2, Can1 SeMet (UniProt Q53W14 =ME+3-636+=LE, internal_change).
T2 sequence: T1 sequence
Kind of data set: X-ray crystallography (1.83 A); EMSA: 100 nM 32P-cA4, 20 mM MES pH 6.5, 100 mM NaCl, 1 mM EDTA, 5 mM MnCl2, 2 uM BSA, 10 min at room temperature; 15% native acrylamide, 1x TBE. Particulars: protein: recombinant; tags: N-terminal His tag removed by TEV; C-terminal Leu-Glu added by cloning; cyclic single strand of 4 nt.

Regarding AAAA (structured_RNA, cyclic oligoribonucleotide, no free ends) [cA4 (cyclic tetra-adenylate), unlabelled], the binding result in data set [1] and in data set [2] was “binds” each time.
